{
  "source": "patent US20140127683",
  "key": {"[1]": {"target": "T1, mYOX1 (Naegleria gruberi) (UniProt D2W6T1)", "T1 sequence": "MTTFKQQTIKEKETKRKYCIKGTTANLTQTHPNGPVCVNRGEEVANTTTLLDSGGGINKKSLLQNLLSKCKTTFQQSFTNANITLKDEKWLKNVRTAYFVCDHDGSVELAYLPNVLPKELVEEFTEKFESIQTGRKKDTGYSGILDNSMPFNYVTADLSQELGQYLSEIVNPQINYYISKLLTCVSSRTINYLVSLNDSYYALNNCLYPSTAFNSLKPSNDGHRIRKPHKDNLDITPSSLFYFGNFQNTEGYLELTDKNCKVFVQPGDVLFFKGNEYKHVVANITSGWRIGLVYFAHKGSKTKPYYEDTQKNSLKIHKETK", "settings": "LC-MS, 20 uM mYOX1, Bis-TRIS pH 6.0, Fe(II), alpha-ketoglutarate"}, "[2]": {"target": "T1, mYOX1 (Naegleria gruberi)", "settings": "LC-MS after NaBH4 reduction and T4-BGT, caC 29.3%, ghmC 67.7%, mC 3.0%"}},
  "note": "Where two headings read alike, the source gives them in different places.",
  "data": [
    {"substance": "IMR90 genomic DNA", "values": [
      {"measurement": "activity (% 5mC oxidized)", "setting": "[1]; caC 89.1%, hmC 1.7%, fC 8.7%, mC 0.5%", "result": 99.5}
    ]},
    {"substance": "MG1655 genomic DNA", "values": [
      {"measurement": "activity (% 5mC oxidized)", "setting": "[2]", "result": 97}
    ]},
    {"substance": "pTXB1-M.SssI plasmid", "values": [
      {"measurement": "activity (% 5mC oxidized)", "setting": "[1]; caC 91.2%, hmC 1.8%, fC 5.9%, mC 1.0%", "result": 99}
    ]}
  ]
}
